MFI data for seven molecules are collected here from patent US20220073608A1 (JIANGSU HUAIYU PHARMACEUTICAL, published 2022).

Assay [1] concerns the target T1, monkey SEMA4D, full length, on CHO-K1 cells (CHO-K1 cSEMA4D) (monkey).
T1 construct: whole, on cells; also called monkey SEMA4D recombinant cells
In words: FACS, CHO-K1 cSEMA4D cells; Ab 0.107 nM. The method, then: (§1) After the cells were counted, they were diluted with PBS to 2×10⁶ cells per milliliter. After washing, 100 μL of diluted and purified leading antibodies was added to each well and the plate was incubated for 1 hour on ice. […] Cells were washed 2 times by centrifugation with FACS buffer. The cells were suspended with 200 μL of FACS buffer, FACS (FACS Verse, purchased from BD) was used to detect and analyze the results.
A general note: In flow cytometry, cells or beads pass a laser one at a time.

The target of assay [2] is T2, mouse SEMA4D, full length, on CHO-K1 cells (CHO-K1 mSEMA4D) (mouse, UniProt O09126 24-861).
T2 construct: whole, on cells; also called murine SEMA4D recombinant cells
T2 sequence (looked up): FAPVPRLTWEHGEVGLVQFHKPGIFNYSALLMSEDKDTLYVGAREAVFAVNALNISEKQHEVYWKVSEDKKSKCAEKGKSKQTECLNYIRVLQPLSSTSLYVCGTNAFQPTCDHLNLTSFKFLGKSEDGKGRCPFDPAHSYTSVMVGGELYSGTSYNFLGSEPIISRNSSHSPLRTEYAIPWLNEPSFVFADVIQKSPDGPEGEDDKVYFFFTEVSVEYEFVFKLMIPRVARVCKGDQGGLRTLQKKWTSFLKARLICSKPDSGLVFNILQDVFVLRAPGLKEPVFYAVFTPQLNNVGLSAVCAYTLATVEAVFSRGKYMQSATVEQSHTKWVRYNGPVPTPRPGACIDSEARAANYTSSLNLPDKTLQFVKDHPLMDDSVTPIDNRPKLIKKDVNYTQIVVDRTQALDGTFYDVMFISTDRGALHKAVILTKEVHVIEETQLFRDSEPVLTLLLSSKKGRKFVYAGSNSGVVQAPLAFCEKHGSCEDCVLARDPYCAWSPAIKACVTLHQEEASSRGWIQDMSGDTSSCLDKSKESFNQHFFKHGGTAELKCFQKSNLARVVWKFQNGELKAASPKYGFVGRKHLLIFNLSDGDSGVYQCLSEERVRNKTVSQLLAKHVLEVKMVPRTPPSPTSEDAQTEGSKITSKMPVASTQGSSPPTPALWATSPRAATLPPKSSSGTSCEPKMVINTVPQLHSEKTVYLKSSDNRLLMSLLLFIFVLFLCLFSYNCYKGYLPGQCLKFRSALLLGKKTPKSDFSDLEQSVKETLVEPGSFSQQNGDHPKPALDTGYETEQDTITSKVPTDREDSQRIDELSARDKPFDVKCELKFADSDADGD
As to the kind of experiment: FACS, CHO-K1 mSEMA4D cells; Ab 0.0213 nM. How it is done:
as §1

Assay [3] deals with T3, human SEMA4D, full length, on CHO-K1 cells (CHO-K1 hSEMA4D) (human, UniProt Q92854 22-862).
T3 construct: whole, on cells; also called human SEMA4D recombinant cells
T3 sequence (looked up): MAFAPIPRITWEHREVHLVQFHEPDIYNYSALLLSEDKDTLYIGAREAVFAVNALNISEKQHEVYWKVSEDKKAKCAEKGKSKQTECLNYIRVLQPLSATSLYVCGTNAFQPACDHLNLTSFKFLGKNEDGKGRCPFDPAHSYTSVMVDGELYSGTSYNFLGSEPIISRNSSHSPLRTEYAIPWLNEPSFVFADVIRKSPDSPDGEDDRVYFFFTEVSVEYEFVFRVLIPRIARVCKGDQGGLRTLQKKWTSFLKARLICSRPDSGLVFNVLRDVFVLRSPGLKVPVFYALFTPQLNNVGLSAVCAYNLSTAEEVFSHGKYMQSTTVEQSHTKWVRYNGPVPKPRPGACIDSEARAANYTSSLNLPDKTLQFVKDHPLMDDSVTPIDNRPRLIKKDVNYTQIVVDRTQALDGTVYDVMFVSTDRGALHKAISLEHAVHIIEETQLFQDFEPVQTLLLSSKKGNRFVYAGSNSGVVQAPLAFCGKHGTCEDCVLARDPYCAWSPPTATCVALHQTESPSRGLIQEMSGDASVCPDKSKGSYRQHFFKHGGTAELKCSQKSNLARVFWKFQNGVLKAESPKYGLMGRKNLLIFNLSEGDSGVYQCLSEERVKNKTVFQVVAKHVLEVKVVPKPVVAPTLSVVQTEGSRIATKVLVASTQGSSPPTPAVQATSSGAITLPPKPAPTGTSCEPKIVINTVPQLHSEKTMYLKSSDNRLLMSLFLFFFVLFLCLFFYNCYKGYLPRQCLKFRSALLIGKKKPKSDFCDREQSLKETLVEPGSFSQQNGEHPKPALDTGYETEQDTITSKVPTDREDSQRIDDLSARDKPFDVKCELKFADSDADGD
In words: FACS, CHO-K1 hSEMA4D cells; Ab 0.000853 nM. How it is done:
The medium was aspirated, the cells were washed once with PBS buffer (purchased from Invitrogen), and then treated with cell dissociation fluid (TrypLE™ Express Enzyme, purchased from Life technology), and the cells were collected. After the cells counted, the cells were washed once with PBS phosphate buffer, and diluted to 3×10⁶ cells per milliliter, and added to the 96-well FACS reaction plate as 100 μL per well. 2% (w/w) fetal calf serum was added to PBS phosphate buffer as FACS buffer, with which the cells were washed once by centrifugation at 2000 rpm 4° C. 100 μL of diluted and purified leading antibodies was added to each well and the plate was incubated for 1 hour on ice. […] Cells were washed 2 times by centrifugation with FACS buffer. The cells were suspended with 200 μL of FACS buffer, and FACS (FACS Verse, purchased from BD) was used to detect and analyze the results.

B1: 32C8F10 (antibody, V domains shown)
VH: EVQLQQSGAELVRPGASVKLSCTASGFNIKDEYIHWVKQRPEQGLEWIGWIDPANGHTEYASRFQAKATITADTSSNTAYLQLSSLTSEDTAVYYCTTGDYDGFAYWGQGTLVTVST
VL: QIVLTQSPAIMSASPGEKVTISCSARSSVSYMYWYQQKPGSSPKPWIYRTSNLASGVPARFSGSGSGTSYSLTISSMEAEDAATYYCQHYHTYPYTFGGGTKLEIK
notes: Mouse monoclonal antibody purified from hybridoma supernatant on protein A
With B1, the MFI in assay [1] turned out to be 1010; in assay [2], 29.5; in assay [3] it was 47.3.

B2: 31C11G2 (antibody, V domains shown)
VH: EVQLQQSGAELVRPGASVKLSCTASGFNIKDEYIHWVKQRPEQGLEWIGWIDPANGHTEYASRFQAKATITADTSSNTAYLQLSSLTSEDTAVYYCTTGDYDGFVYWGQGTLVTVST
VL: QIVLTQSPAIMSASPGEKVTIFCSARSSVSYMYWYQQKPGSSPKPWIYRTSNLASGVPARFSGSGSGTSYSLTISSMEAEDAATYYCQHYHTYPYTFGGGTKLEIK
notes: as for B1
As for B2, the MFI in assay [1] amounted to 1210; in assay [2], 30.8; in assay [3], 46.7.

B3: 31G10C5 (antibody, V domains shown)
VH: EVQLQQSGAELVRPGASVKLSCTASGFNIKDDYIHWVKQRPEQGLEWIGWIDPANGHIEYASNFQAKATITADTSSNTAYLQLSSLTSEDTAVYYCTTGDYDGFTYWGQGTLVTVST
VL: QIVLTQSPAIMSASPGEKVTISCSARSSVSYMYWYQQKPGSSPKPWIYRTSNLASGVPARFSGSGSGTSYSLTISSMEAEDAATYYCQHYHTYPYTFGGGTKLEIK
notes: as for B1
B3: the MFI in assay [1] came out at 1310; in assay [2] it was 29.6; in assay [3], 47.

B4: 37F11F9 (antibody, V domains shown)
VH: EVQLQQSGPVLVKPGASVKMSCKASGYTFTDYYMNWVKQSHGKSLEWIGLINPYSGGSTFNQKFKAKATLTVDKSSSSAYMDLNSLTSEDSAVYYCARVGDGYYGVTHGMDYWGQGTSVTVSS
VL: DIVMTPSQKFMSTTVGDRVSITCKASQNVGTAVAWYQQKPGQSPTILIYSASNRYTGVPDRFTGSGSGTDFTLTISNMKSEDLADYFCQQYYIYPFTFAAGTKLELK
notes: as for B1
For B4, the MFI in assay [1] is 300; in assay [2], 30.5; in assay [3], 38.2.

B5: 37C4F7 (antibody, V domains shown)
VH: EFQLQQSGPEVVKPGASVKISCKASGYSFTDYNMNWMKQSKGKSLEWIGVINPNYGTTTYNQNFKGKATLTVDQSSSTAYMQLNSLTSEDSAVYYCARDMYYVYAYYTMDYWGQGTSVTVSS
VL: DVVMTQTPLSLPVSLGDQASISCRSSQSLVHSNGHTYLHWYLQRPGQSPTLLIYKVSNRFSGVPDRFSGSGSGTDFTLKISRVEAEDLGVYFCSQGTHVPWTFGGGTKLEIK
notes: as for B1
Consider B5, for which the MFI in assay [1] stood at 237; in assay [2], 30.8; in assay [3], 36.9.

B6: 38H2E3 (antibody, V domains shown)
VH: EFQLQQSGPEVVKPGASVKISCKASGYSFTDYNMNWMKQSKGKSLEWIGVISPDYGTTTYNQNFKDKATLTVDQSSSTAYMQLNSLTSEDSAVYYCAKDMYYVYAYYTMDYWGHGTSVTVSS
VL: DVVMTQTPLSLPVSLGDQASISCRSSQSLVHSNGHTYLHWYLQRPGQSPTLLIYKVSNRFSGVPDRVSGSGSGTDFTLKISRVEAEDLGVYFCSQGTHVPRTFGGGTKLEIK
notes: as for B1
Regarding B6, the MFI in assay [1] is 210; in assay [2], 30.1; in assay [3], 36.7.

B7: 42B7G2 (antibody, V domains shown)
VH: QVQLQQSGAELARPGASVKLSCKASGYTFTDYGISWVKQRTGQGLEWIGEIYLRNDNSYYNEKFKGKATLTADKSSNTAYMELRSLTSEDSAVYFCARWGDHGNNYEDAMDYWGQGTSVTVSS
VL: DIVLTQSPASLAMSLGKRATISCRASESVSIIGSNLIHWYQQKPGQPPKLLIYHASNLETGVPARFSGSGSRTDFTLTIDPVEEDDVAIYYCLQSRKVPYTFGGGTKLEIK
notes: as for B1
With B7, the MFI came out at 793 in assay [1], 31.6 in assay [2] and 41.2 in assay [3].
